# Results taken from paper PMC4410396 (Acta Naturae, 2015).
# T1: MorFDH (Moraxella sp., UniProt O08375, A199G)
# T1 construct: gene fdh; recombinant, plasmid pMorFDH2, E. coli BL21(DE3)/pLysS; no tag mentioned; Phenyl Sepharose and Sephadex G-25
# T1 sequence (O08375 2-402 A199G): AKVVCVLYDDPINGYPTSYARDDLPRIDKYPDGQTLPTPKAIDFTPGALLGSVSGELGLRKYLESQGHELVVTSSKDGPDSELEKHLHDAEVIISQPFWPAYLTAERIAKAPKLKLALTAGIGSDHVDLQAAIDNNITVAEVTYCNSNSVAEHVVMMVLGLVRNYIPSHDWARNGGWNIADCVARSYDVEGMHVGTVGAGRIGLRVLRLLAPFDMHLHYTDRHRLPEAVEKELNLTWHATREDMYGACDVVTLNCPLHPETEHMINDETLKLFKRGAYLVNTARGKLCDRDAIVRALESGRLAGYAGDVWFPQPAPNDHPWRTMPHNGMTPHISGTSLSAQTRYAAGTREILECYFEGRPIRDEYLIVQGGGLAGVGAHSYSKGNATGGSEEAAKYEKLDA
# Key:
# [1] = system: T2, NC(=O)c1ccc[n+]([C@@H]2O[C@H](COP(=O)(O)OP(=O)(O)OC[C@H]3O[C@@H](n4cnc5c(N)ncnc54)[C@H](O)[C@@H]3O)[C@@H](O)[C@H]2O)c1; assay: purified protein; assay type: biochemical, Pseudomonas sp. 101; details: saturating formate (>15 KM), 0.1 M sodium phosphate pH 7.0, 30°C
# T2 construct: recombinant, plasmid pPseFDH8, E. coli BL21(DE3)/pLysS; no tag mentioned; Phenyl Sepharose and Sephadex G-25
# [2] = system: T3, NC(=O)c1ccc[n+]([C@@H]2O[C@H](COP(=O)(O)OP(=O)(O)OC[C@H]3O[C@@H](n4cnc5c(N)ncnc54)[C@H](OP(=O)(O)O)[C@@H]3O)[C@@H](O)[C@H]2O)c1; assay: purified protein; assay type: biochemical, Pseudomonas sp. 101; details: saturating formate (>15 KM), 0.1 M sodium phosphate pH 7.0, 30°C
# T3 construct: recombinant, plasmid pPseFDH8, E. coli BL21(DE3)/pLysS; no tag mentioned; Phenyl Sepharose and Sephadex G-25
# MorFDH = target: T1, MorFDH; assay: spectrophotometric NAD(P)H formation at […] nm; assay type: biochemical; details: saturating formate (>15 KM); 0.1 M sodium phosphate pH 7.0, 30°C; read-out: KMKNAD^+
# purified protein = substrate: NC(=O)c1ccc[n+]([C@@H]2O[C@H](COP(=O)(O)OP(=O)(O)OC[C@H]3O[C@@H](n4cnc5c(N)ncnc54)[C@H](OP(=O)(O)O)[C@@H]3O)[C@@H](O)[C@H]2O)c1; assay: purified protein; assay type: biochemical, Pseudomonas sp. 101; details: saturating formate (>15 KM), 0.1 M sodium phosphate pH 7.0, 30°C, printed with an asterisk
molecule,measurement,setting,value
PseFDH (Pseudomonas sp. 101; D222S),Km,[1],710 ± 45 µM
same,kcat,[1],5.0 ± 0.3 s⁻¹
PseFDH (Pseudomonas sp. 101; A199G/D222S),Km,[1],540 ± 42 µM
same,kcat,[1],5.0 ± 0.2 s⁻¹
same,Km,[2],280 ± 25 µM
same,kcat,[2],1.8 ± 0.2 s⁻¹
PseFDH (Pseudomonas sp. 101; A199G),Km,[1],35 ± 2 µM
NC(=O)c1ccc[n+]([C@@H]2O[C@H](COP(=O)(O)OP(=O)(O)OC[C@H]3O[C@@H](n4cnc5c(N)ncnc54)[C@H](O)[C@@H]3O)[C@@H](O)[C@H]2O)c1 [NAD^+],Km,MorFDH,45 ± 3 µM
"PseFDH (Pseudomonas sp. 101) (protein, recombinant, plasmid pPseFDH8, E. coli BL21(DE3)/pLysS; no tag mentioned; Phenyl Sepharose and Sephadex G-25) AKVLCVLYDDPVDGYPKTYARDDLPKIDHYPGGQTLPTPKAIDFTPGQLLGSVSGELGLRKYLESNGHTLVVTSDKDGPDSVFERELVDADVVISQPFWPAYLTPERIAKAKNLKLALTAGIGSDHVDLQSAIDRNVTVAEVTYCNSISVAEHVVMMILSLVRNYLPSHEWARKGGWNIADCVSHAYDLEAMHVGTVAAGRIGLAVLRRLAPFDVHLHYTDRHRLPESVEKELNLTWHATREDMYPVCDVVTLNCPLHPETEHMINDETLKLFKRGAYIVNTARGKLCDRDAVARALESGRLAGYAGDVWFPQPAPKDHPWRTMPYNGMTPHISGTTLTAQARYAAGTREILECFFEGRPIRDEYLIVQGGALAGTGAHSYSKGNATGGSEEAAKFKKAV",kcat,purified protein,1.3 ± 0.1 s⁻¹
